T1: mouse ICOSL (mouse, UniProt Q9JHJ8 47-279, limits assumed)
T1 construct: Target of ELSS1 panning; also called mICOSL
T1 sequence (looked up): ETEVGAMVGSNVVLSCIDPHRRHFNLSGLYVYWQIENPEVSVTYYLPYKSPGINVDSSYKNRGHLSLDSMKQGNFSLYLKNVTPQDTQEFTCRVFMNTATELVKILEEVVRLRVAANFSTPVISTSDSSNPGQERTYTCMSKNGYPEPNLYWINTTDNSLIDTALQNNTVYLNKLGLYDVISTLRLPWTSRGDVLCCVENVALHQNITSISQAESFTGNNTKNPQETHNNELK


Molecular target: T1, mouse ICOSL
Experiment: lead clones against targets used to screen ELSS1; alignment legend

binding result | Binder
binds | SEQ ID NO 44 (VNAR, VNAR) VNAR: TRVDQTPRTATKETGESLTINCVLTDTSYGWFSTSWFRKNPGTTDWERMSIGGRYVESVNKGAKSFSLRIKDLTVADSATYICRAQAAIPDFPRYVYGAGTVLTVN
binds | SEQ ID NO 43 (VNAR, VNAR) VNAR: TRVDQTPRTATKETGESLTINCVLTDTRYALYSTSWFRKNPGTTDWERMSIGGRYVESVNKGAKSFSLRIKDLTVADSATYICRANEMMPPMDVYGAGTVLTVN

Second part, the binder before the results:

Binder | binding result
SEQ ID NO 42 (VNAR, VNAR) VNAR: TRVDQTPRTATKETGESLTINCVLTDTEYGLFSTSWFRKNPGTTDWERMSIGGRYVESVNKGAKSFSLRIKDLTVADSATYYCKALGWWPPAFPHWYDGAGTVLTVN | binds
SEQ ID NO 45 (VNAR, VNAR) VNAR: TRVDQTPRTATKETGESLTINCVLTDTGYGLFSTSWFRKNPGTTDWERMSIGGRYVESVNKGAKSFSLRIKDLTVADSATYYCKALGWIPPEFPHWYDGAGTVLTVN | binds
SEQ ID NO 41 (VNAR, VNAR) VNAR: ASVNQTPRTATKETGESLTINCVLTDTGYGWFATSWFRKNPGTTDWERMSIGGRYVESVNKGAKSFSLRIKDLTVADSATYICRADMWPKNTKYSPDVYGAGTVLTVN | binds

— patent publication US20200002403A1 (UNIVERSITY COURT OF THE UNIVERSITY OF ABERDEEN, published 2020)
